The test system of test [1] is MMP peptide-specific T cells. Briefly: Delayed-type hypersensitivity. As to conditions: control ovalbumin peptide.
Test [2] relates to polyclonal lymph node cell population. The conditions noted are these: ref [9] (also Fig. 3); cited from earlier work.
Test [3] has as its target T1, Lewis rat MHC class II molecule, RT1.B^L (rat (Lewis), UniProt P20037 24-256; P29826 28-263).
T1 sequence (looked up) 1: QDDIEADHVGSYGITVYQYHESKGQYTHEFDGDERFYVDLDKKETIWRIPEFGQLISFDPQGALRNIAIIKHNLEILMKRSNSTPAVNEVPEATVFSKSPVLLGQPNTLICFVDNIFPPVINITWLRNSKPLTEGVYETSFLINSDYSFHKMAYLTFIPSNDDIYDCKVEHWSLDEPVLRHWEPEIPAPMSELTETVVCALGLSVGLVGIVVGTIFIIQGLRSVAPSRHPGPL
T1 sequence (looked up) 2: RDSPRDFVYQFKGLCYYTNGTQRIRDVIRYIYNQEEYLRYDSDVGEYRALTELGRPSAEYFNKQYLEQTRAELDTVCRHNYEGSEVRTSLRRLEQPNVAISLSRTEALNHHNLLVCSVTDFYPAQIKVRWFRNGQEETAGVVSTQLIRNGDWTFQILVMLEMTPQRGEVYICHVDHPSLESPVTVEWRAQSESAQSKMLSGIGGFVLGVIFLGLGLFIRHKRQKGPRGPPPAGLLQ
Briefly: competitive MHC class II-peptide binding assay.

Ends that are not written are not given here.

As usually defined, the IC50 is the concentration that inhibits the measured activity by half. The low end stands for inhibition by little substance, the high end for a need for much substance.

For the molecule ISQAVHAAHAEINEAGR [OVA323–339], the “DTH reaction (in words), control peptide” value in test [1] is listed as “no DTH reaction was observed”. For the molecule SNTFGLQLE [hsp65_178–186], the “proliferative response to mycobacterial hsp65 178–186” value in test [2] is “very low”. Regarding VKEGHSPPDDVDIVI-NH2 [Human MMP-16_(539-553) peptide], in test [3], the IC50 was in the range of 64 to 128 µM. SAFWPSLPSGLDAAY-NH2 [Rat MMP-10_(329-343) peptide]: the IC50 in test [3] lay within 128 to 256 µM. Turning to FLYFFSGSSQLEFDP-NH2 [Rat MMP-3_(444-458) peptide], the IC50 in test [3] was ≤ 8 µM.

These data come from paper PMC125294 (Arthritis Research, 2002).
